{"source": "patent US7531329B2", "about": "“Carbonyl reductase, gene thereof and method of using the same” (Kaneka Corporation, priority 2002, dated 2009)", "assay": "Determination of enzyme properties of purified RDR", "assay_type": "biochemical", "conditions": "N-benzyl-3-pyrrolidinone 5 mM, coenzyme 0.25 mM, pH 6.5, 30° C.", "method": "RDR obtained in Example 1 was investigated as to its enzymatic properties. Fundamentally, the enzyme activity was measured by adding the substrate N-benzyl-3-pyrrolidinone (5 mM), the coenzyme […] (0.25 mM) and the enzyme to 100 mM phosphate buffer (pH 6.5), allowing the reaction to proceed at 30° C. for 1 minute, and then measuring the decrease in absorbance at a wavelength of 340 nm.\nIn the presence of NADH as a coenzyme, the enzyme acted on N-benzyl-3-pyrrolidinone to form (R)-N-benzyl-3-pyrrolidinol with an optical purity of 99.9% ee or more. The enzyme activity measured with NADPH as a coenzyme by the above method was about 0.6% of the activity obtained by using NADH as a coenzyme.\nEnzyme activity measurements were carried out by the same enzyme activity measurement method as mentioned above except that the pH was varied in the range of 4.0 to 8.0 using, as the buffer, 100 mM phosphate buffer and 100 mM acetate buffer.\nEnzyme activity measurements were carried out by the same enzyme activity measurement method as mentioned above except that the temperature was varied from 20° C. to 60° C.", "data": [{"substance": "RDR: purified enzyme from Devosia riboflavina IFO 13584 stereoselectively reducing N-benzyl-3-pyrrolidinone to (R)-N-benzyl-3-pyrrolidinol", "values": [{"measurement": "enzyme activity with NADPH as a coenzyme relative to the activity with NADH as a coenzyme", "value": "about 0.6%"}]}]}
